This is an account of results in PMC9409100.

Some results are limits rather than exact numbers.

Holding throughout (assay): pull-down
For series [1], the target named is T1, His6-MBP-Csy4* (inactive Csy4) H29A;S50C (Pseudomonas aeruginosa) (UniProt Q02MM2).
T1 sequence: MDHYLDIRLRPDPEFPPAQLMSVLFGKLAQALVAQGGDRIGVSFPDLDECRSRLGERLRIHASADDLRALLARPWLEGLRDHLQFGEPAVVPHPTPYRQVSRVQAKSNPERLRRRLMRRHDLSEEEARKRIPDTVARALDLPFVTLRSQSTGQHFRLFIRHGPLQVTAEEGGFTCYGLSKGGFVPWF
To be noted: no imidazole; RNA folded in 20 mM Tris-HCl pH 7.5, 100 mM (salt not given), 3 mM MgCl2; binding 90 min at 4 C on beads; RNA binding buffer 20 mM Tris-HCl pH 7.5, 100 mM ….

Series [2] has as its target T2, His6-Myc-Csy4* (inactive Csy4) H29A;S50C (Pseudomonas aeruginosa) (UniProt Q02MM2).
T2 sequence: T1 sequence
The conditions noted are these: no imidazole; 'almost 50%'; RNA folded in 20 mM Tris-HCl pH 7.5, 100 mM (salt not given), 3 mM MgCl2; binding 90 min at 4 C on beads; RNA binding buffer 20 mM Tris-HCl pH 7.5, 100 mM ….

Series [3] concerns the target T3, His6-TwinStrep-Csy4* (inactive Csy4) H29A;S50C (Pseudomonas aeruginosa) (UniProt Q02MM2).
T3 sequence: T1 sequence
The conditions noted are these: no imidazole; RNA folded in 20 mM Tris-HCl pH 7.5, 100 mM (salt not given), 3 mM MgCl2; binding 90 min at 4 C on beads; RNA binding buffer 20 mM Tris-HCl pH 7.5, 100 mM ….

As for “GGGUUCACUGCCGUAUAGGCAGAUAUAGAAGGUAGUGGAUCUCGACAGGGUUGAUAUGAGAACACACGAGUAAUCAACGGCUGUAAUGACGCUACGUCAUUGUUACAGCUCUCGUUUUCAUGUGUUCUCAGGUCACCCCUGCUGAGCUCUUUCUCUACCGUAAUUAC [Csy4-hairpin-tagged pri-miR398b-SL]”, the binding signal (% transcript depleted from supernatant) in series [1] is 80; in series [2] it was 50; in series [3], < 10.
